Reference: article PMC10397247

Columns and labels:
[1] = molecular target: T1, 4H967-bA; assay: two-hybrid library CCNG1;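 also: natural log of median RNA to DNA barcode read ratio; higher means stronger binding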
T1 chain: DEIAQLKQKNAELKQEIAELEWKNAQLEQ

[2] = molecular target: T2, O15-bA; assay: two-hybrid library CCNG1;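 also: natural log of median RNA to DNA barcode read ratio; higher means stronger binding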
T2 chain: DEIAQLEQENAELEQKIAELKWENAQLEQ

[3] = molecular target: T3, 4H3427-bA; assay: two-hybrid library CCNG1;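 also: natural log of median RNA to DNA barcode read ratio; higher means stronger binding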
T3 chain: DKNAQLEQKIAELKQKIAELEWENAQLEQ

[4] = molecular target: T4, 4H575-bA; assay: two-hybrid library CCNG1;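 also: natural log of median RNA to DNA barcode read ratio; higher means stronger binding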
T4 chain: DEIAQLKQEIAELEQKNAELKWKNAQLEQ

[5] = molecular target: T5, 4H797-bA; assay: two-hybrid library CCNG1;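 also: natural log of median RNA to DNA barcode read ratio; higher means stronger binding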
T5 chain: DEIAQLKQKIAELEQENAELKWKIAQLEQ

[6] = molecular target: T6, 4H2627-bA; assay: two-hybrid library CCNG1;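 also: natural log of median RNA to DNA barcode read ratio; higher means stronger binding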
T6 chain: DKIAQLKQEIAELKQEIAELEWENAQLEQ

[7] = molecular target: T7, 4H457-bA; assay: two-hybrid library CCNG1; details: mean of both orientations
T7 chain: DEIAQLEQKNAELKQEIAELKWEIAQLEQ

[8] = molecular target: T8, 4H754-bA; assay: two-hybrid library CCNG1
T8 chain: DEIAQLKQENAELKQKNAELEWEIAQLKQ

[9] = molecular target: T9, 4H918-bA; assay: two-hybrid library CCNG1
T9 chain: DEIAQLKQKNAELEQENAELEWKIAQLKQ

[10] = molecular target: T10, 4H953-bA; assay: two-hybrid library CCNG1
T10 chain: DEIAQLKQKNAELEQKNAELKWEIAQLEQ

[11] = molecular target: T11, 4H780-bA; assay: two-hybrid library CCNG1
T11 chain: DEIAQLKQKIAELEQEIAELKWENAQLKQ

[12] = molecular target: T12, 4H3010-bA; assay: two-hybrid library CCNG1
T12 chain: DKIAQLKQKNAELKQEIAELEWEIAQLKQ

[13] = molecular target: T13, 4H855-bA; assay: two-hybrid library CCNG1
T13 chain: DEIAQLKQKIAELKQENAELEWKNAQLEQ

[14] = molecular target: T14, 4H2702-bA; assay: two-hybrid library CCNG1
T14 chain: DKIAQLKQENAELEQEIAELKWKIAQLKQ

[15] = molecular target: T15, 4H968-bA; assay: two-hybrid library CCNG1
T15 chain: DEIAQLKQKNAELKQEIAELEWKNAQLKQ

[16] = molecular target: T16, 4H4073-bA; assay: two-hybrid library CCNG1
T16 chain: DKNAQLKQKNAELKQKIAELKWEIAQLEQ

[17] = molecular target: T17, 4H3926-bA; assay: two-hybrid library CCNG1
T17 chain: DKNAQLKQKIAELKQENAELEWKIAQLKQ

[18] = molecular target: T18, 4H346-bA; assay: two-hybrid library CCNG1
T18 chain: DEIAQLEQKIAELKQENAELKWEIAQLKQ

[19] = molecular target: T19, 4H2673-bA; assay: two-hybrid library CCNG1
T19 chain: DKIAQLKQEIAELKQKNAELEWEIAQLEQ

[20] = molecular target: T20, 4H3112-bA; assay: two-hybrid library CCNG1
T20 chain: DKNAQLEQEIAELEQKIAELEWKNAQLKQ

[21] = molecular target: T21, 4H683-bA; assay: two-hybrid library CCNG1
T21 chain: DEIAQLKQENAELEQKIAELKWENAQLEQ

[22] = molecular target: T22, P5bH1; assay: two-hybrid library CCNG1
T22 chain: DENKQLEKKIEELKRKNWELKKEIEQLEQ

[23] = molecular target: T23, P7bH1; assay: two-hybrid library CCNG1
T23 chain: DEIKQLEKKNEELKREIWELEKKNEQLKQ

[24] = molecular target: T24, P6bH1; assay: two-hybrid library CCNG1
T24 chain: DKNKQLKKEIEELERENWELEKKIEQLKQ

[25] = molecular target: T25, P9bH1; assay: two-hybrid library CCNG1
T25 chain: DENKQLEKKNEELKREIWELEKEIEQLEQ

[26] = molecular target: T26, P8bH1; assay: two-hybrid library CCNG1
T26 chain: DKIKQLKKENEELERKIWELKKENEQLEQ

[27] = molecular target: T27, 4H775-AA; assay: two-hybrid library CCmax; details: mean of both orientations
T27 chain: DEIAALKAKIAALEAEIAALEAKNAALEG

[28] = molecular target: T28, 4H510-AA; assay: two-hybrid library CCmax; details: mean of both orientations
T28 chain: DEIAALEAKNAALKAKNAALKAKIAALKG

[29] = molecular target: T29, 4H390-AA; assay: two-hybrid library CCmax; details: mean of both orientations
T29 chain: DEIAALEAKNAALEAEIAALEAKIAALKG

[30] = molecular target: T30, 4H2687-AA; assay: two-hybrid library CCmax; details: mean of both orientations
T30 chain: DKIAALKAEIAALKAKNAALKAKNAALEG

[31] = molecular target: T31, 4H3940-AA; assay: two-hybrid library CCmax; details: mean of both orientations
T31 chain: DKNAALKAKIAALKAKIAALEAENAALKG

[32] = molecular target: T32, 4H3409-AA; assay: two-hybrid library CCmax; details: mean of both orientations
T32 chain: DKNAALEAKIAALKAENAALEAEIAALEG

[33] = molecular target: T33, 4H278-AA; assay: two-hybrid library CCmax; details: mean of both orientations
T33 chain: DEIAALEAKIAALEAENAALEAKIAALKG

[34] = molecular target: T34, 4H2758-AA; assay: two-hybrid library CCmax; details: mean of both orientations
T34 chain: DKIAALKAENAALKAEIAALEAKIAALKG

[35] = molecular target: T35, 4H2873-AA; assay: two-hybrid library CCmax; details: mean of both orientations
T35 chain: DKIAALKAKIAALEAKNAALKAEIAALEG

[36] = molecular target: T36, 4H816-AA; assay: two-hybrid library CCmax; details: mean of both orientations
T36 chain: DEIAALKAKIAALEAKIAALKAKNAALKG

[37] = molecular target: T37, 4H2646-AA; assay: two-hybrid library CCmax
T37 chain: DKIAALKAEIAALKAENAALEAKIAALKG

[38] = molecular target: T38, 4H2985-AA; assay: two-hybrid library CCmax; details: mean of both orientations
T38 chain: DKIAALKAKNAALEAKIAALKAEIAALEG

[39] = molecular target: T39, 4H2705-AA; assay: two-hybrid library CCmax; details: mean of both orientations
T39 chain: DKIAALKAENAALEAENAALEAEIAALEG

[40] = molecular target: T40, 4H87-AA; assay: two-hybrid library CCmax
T40 chain: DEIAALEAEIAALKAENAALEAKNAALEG

[41] = molecular target: T41, 4H3625-AA; assay: two-hybrid library CCmax; details: mean of both orientations
T41 chain: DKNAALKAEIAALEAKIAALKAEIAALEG

[42] = molecular target: T42, 4H3134-AA; assay: two-hybrid library CCmax; details: mean of both orientations
T42 chain: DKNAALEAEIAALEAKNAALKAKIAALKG

[43] = molecular target: T43, P4bH1; assay: two-hybrid library CCNG1
T43 chain: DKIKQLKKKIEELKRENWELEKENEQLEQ

B1: 4H967-bA (peptide)
chain: DEIAQLKQKNAELKQEIAELEWKNAQLEQ
Which interaction score [1] does the source give for B1 here?
Its interaction score is -0.153.

And the interaction score [2]?
Its interaction score is 1.66.

B2: 4H2627-bA (peptide)
chain: DKIAQLKQEIAELKQEIAELEWENAQLEQ
Which results are given for B2?
interaction score [3]: 1.03; interaction score [4]: 0.64; interaction score [5]: -1.1; interaction score [6]: 0.441; interaction score [7]: -0.508; interaction score [8]: -1.42; interaction score [9]: -1.03; interaction score [10]: -0.555; interaction score [11]: -0.421; interaction score [12]: -0.0123; interaction score [13]: -1.42; interaction score [14]: 0.286; interaction score [15]: -0.842; interaction score [16]: 1.07; interaction score [17]: -0.308; interaction score [18]: -1.21; interaction score [19]: -0.531; interaction score [20]: 0.764; interaction score [21]: -0.856

B3: P5bH1 (peptide)
chain: DENKQLEKKIEELKRKNWELKKEIEQLEQ
For B3, which interaction score [22] is on record?
Its interaction score is -0.609.

What about the interaction score [23] of the same binder?
The interaction score was -2.02.

What about the interaction score [24] of the same binder?
Its interaction score is 1.31.

And the interaction score [25]?
The interaction score was -0.9.

And the interaction score [26]?
Its interaction score is 0.944.

B4: 4H2646-AA (peptide)
chain: DKIAALKAEIAALKAENAALEAKIAALKG
What does the source list for B4?
interaction score [27]: -0.478; interaction score [28]: 2.02; interaction score [29]: 1.18; interaction score [30]: 1.36; interaction score [31]: -1.27; interaction score [32]: -0.0843; interaction score [33]: 0.745; interaction score [34]: -0.75; interaction score [35]: 1.89; interaction score [36]: -1.37; interaction score [37]: 1.66; interaction score [38]: -0.411; interaction score [39]: -1.19; interaction score [40]: 2.43; interaction score [41]: -0.363; interaction score [42]: 1.28

B5: P4bH1 (peptide)
chain: DKIKQLKKKIEELKRENWELEKENEQLEQ
What does the source list for B5?
interaction score [22]: -1.09; interaction score [23]: -0.994; interaction score [24]: -0.487; interaction score [43]: -1.18; interaction score [25]: -0.46; interaction score [26]: -0.993
